The record followed here is patent publication US11028172.

Assay [1] has as its target human TIGIT-His protein (human) (UniProt Q495A1). Kind of assay: ELISA, plate coated with human TIGIT-His, anti-human IgG-HRP, OD 450nm; unit taken from the axis Log[Conc.]/ng/ml. In general terms: ELISA stands for enzyme-linked immunosorbent assay.
Assay [2] concerns the target biotin-labeled human TIGIT protein (human) (UniProt Q495A1). Kind of assay: ELISA blocking assay: CD155-hFc coated, biotin-labeled human TIGIT, antibody titrated.
Assay [3] has as its target human TIGIT expressed on cells (human) (UniProt Q495A1). In words: flow cytometry on human TIGIT overexpressing cells, Alexa Fluor 647 anti-human IgG; fitted top of a flat control curve, unit from the y axis.

Sequence of human TIGIT expressed on cells (human) (Q495A1 22-244): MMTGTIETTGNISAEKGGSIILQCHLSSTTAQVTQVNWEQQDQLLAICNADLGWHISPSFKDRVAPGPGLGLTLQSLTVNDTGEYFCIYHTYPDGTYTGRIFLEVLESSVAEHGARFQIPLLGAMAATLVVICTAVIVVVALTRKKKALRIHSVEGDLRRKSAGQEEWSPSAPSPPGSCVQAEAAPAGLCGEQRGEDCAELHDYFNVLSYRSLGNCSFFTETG
Sequence of human TIGIT-His protein (human) (Q495A1 22-141 limits assumed): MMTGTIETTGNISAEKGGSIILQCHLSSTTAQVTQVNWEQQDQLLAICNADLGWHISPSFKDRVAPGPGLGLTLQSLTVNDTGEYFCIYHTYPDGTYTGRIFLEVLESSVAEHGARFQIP
Sequence of biotin-labeled human TIGIT protein (human) (Q495A1 22-141 limits assumed): as above

A word on the EC50: it is the concentration giving half of the maximal effect. Read a low EC50 as a more potent agent. As a reminder, the IC50 is the concentration at which inhibition is half-maximal. Read a high IC50 as a need for much substance. Tiragolumab (RG6058, Roche) (antibody) had an EC50 in assay [1] of 0.00659 µg/mL. For the same substance, in assay [2], the concentration for half-maximal inhibition (IC50) amounted to 0.531 µg/mL. Regarding total human IgG (antibody), the Top in assay [3] amounted to 110 MFI.
